The target of this test is recombinant pscC protein of Pseudomonas aeruginosa (PA01), His-GST fusion (Pseudomonas aeruginosa PA01). Kind of test: SEC.

Consider “recombinant pscC protein of Pseudomonas aeruginosa (PA01), His-GST fusion (domain or fragment)”, for which the stoichiometry N was found to be 2.

What is called stoichiometry N is a count of units in the complex or per binding partner.

The values are drawn from doi:10.1101/071720.
